The labels stand for the following.
B1: Dad1 subunit of the Dam1 complex (natural protein, S. cerevisiae, UniProt Q12248 1-94, looked up)
chain: MMASTSNDEEKLISTTDKYFIEQRNIVLQEINETMNSILNGLNGLNISLESSIAVGREFQSVSDLWKTLYDGLESLSDEAPIDEQPTLSQSKTK
notes: Dad1 subunit of the S. cerevisiae Dam1 complex; Stood in the structure as part of the whole Dam1 complex; also called Dad1^A; source: as subunit of m2
B2: Dad4 subunit of the Dam1 complex (natural protein, S. cerevisiae, UniProt P69851 1-72, looked up)
chain: MENPHEQVQANILSRIIGNVKRLNESVAILNQELVTINNRNKNLEIMGAICDNYHSSVQFNLEATNNKKPPL
notes: Dad4 subunit of the S. cerevisiae Dam1 complex; Stood in the structure as part of the whole Dam1 complex; also called Dad4^B; source: as subunit of m2
B3: Spc19 subunit of the Dam1 complex (natural protein, S. cerevisiae, UniProt Q03954 1-165, looked up)
chain: MTDALEQSVLALEGTVSVLKDSVESLKCANEPSTNLASTMLQTKRVFRLVPEYDVERSKLDLIEEVEPLVRTLGDKLRKSMGRMQRELDTLQQTYELNDLRLKKNISMDDDDALNSPDMGQEYEGRDADDVVMMASSTNEELEELKKLKEKKKQLENKLEILKQK
notes: Spc19 subunit of the S. cerevisiae Dam1 complex; Stood in the structure as part of the whole Dam1 complex; source: as subunit of m2
B4: Ask1 subunit of the Dam1 complex (natural protein, S. cerevisiae, UniProt P35734 1-292, looked up)
chain: MDSASKEETLEKLDQEITVNLQKIDSNLSFCFHKITQDIIPHVATYSEICERIMDSTEWLGTMFQETGLVNLQANAAAPVGNAPVKSLVSNNVGIFPTSAEEASRQSQTDNGPNEADSAVHVNRDVHSMFNNDSIDDFHTANITSTGQILKLPDSSDEDTGSEAVPSREQTDLTGEGHGGADDEQDESTIQRQSRKRKISLLLQQQYGSSSSMVPSPIVPNKMRKQLAHEEHINNDGDNDDENSNNIESSPLKQGHHHPKGQADDNNEGPDEEESTKEVPKPGTIIHFSTNR
notes: Ask1 subunit of the S. cerevisiae Dam1 complex; Stood in the structure as part of the whole Dam1 complex; also called Ask1^B; source: as subunit of m2
B5: Spc34 subunit of the Dam1 complex (natural protein, S. cerevisiae, UniProt P36131 1-295, looked up)
chain: MGESLDRCIDDINRAVDSMSTLYFKPPGIFHNAILQGASNKASIRKDITRLIKDCNHDEAYLLFKVNPEKQSVSRRDGKEGVFDYVIKRDTDMKRNRRLGRPGEKPIIHVPKEVYLNKDRLDLNNKRRRTATTSGGGLNGFIFDTDLIGSSVISNSSSGTFKALSAVFKDDPQIQRLLYALENGSVLMEEESNNQRRKTIFVEDFPTDLILKVMAEVTDLWPLTEFKQDYDQLYHNYEQLSSKLRFIKKEVLLQDDRLKTMSQYHPSSSHDVAKIIRKEKDEIRRLEMEIANLQE
notes: Spc34 subunit of the S. cerevisiae Dam1 complex; Stood in the structure as part of the whole Dam1 complex; source: as subunit of m2
B6: Dam1 subunit of the Dam1 complex (natural protein, S. cerevisiae, UniProt P53267 1-343, looked up)
chain: MSEDKAKLGTTRSATEYRLSIGSAPTSRRSSMGESSSLMKFADQEGLTSSVGEYNENTIQQLLLPKIRELSDSIITLDSNFTRLNFIHESLADLNESLGSLLYGIMSNSWCVEFSQAPHDIQDDLIAIKQLKSLEDEKNNLVMELSNMERGIKRKKDEQGENDLAKASQNKQFNQPLFPSSQVRKYRSYDNRDKRKPSKIGNNLQVENEEDYEDDTSSEASFVLNPTNIGMSKSSQGHVTKTTRLNNNTNSKLRRKSILHTIRNSIASGADLPIENDNVVNLGDLHPNNRISLGSGAARVVNGPVTKNRNSMFSGRAERKPTESRHSVAKKTEKKINTRPPFR
notes: Dam1 subunit of the S. cerevisiae Dam1 complex; Stood in the structure as part of the whole Dam1 complex; also called Dam1^Staple (residues 1-26); Dam1^C-ter; source: as subunit of m2

Assay in all cases: cryo-EM structure; complexes assembled on cryo-EM grids by step-wise addition of taxol-stabilized microtubule filaments, Ndc80c and Dam1c; sub-boxing, signal subtraction and symmetry expansion for the separate reconstructions
Common to all, as to details: both partners purified

For assay [1], the target named is B6.
Assay [2] addresses T1, Ndc80 subunit of the Ndc80 complex (S. cerevisiae, UniProt P40460 1-691).
T1 construct: Ndc80 subunit of the budding yeast Ndc80 complex; Stood in the structure as part of the Ndc80 complex; also called Ndc80^CH; Ndc80^CC; source: as subunit of m1

Assay [3] addresses B5.
Assay [4] addresses T2, Ndc80 complex (Ndc80, Nuf2, Spc24, Spc25), budding yeast (S. cerevisiae, UniProt P40460 1-691; P33895 1-451; Q04477 1-213; P40014 1-221).
T2 construct: Ndc80 subunit of the budding yeast Ndc80 complex; Nuf2 subunit of the budding yeast Ndc80 complex; Spc24 subunit of the budding yeast Ndc80 complex; Spc25 subunit of the budding yeast Ndc80 complex; Complex used for cryo-EM; Spc24-Spc25 gave no cryo-EM density; copies: + + +

For assay [5], the target named is T3, Nuf2 subunit of the Ndc80 complex (S. cerevisiae, UniProt P33895 1-451).
T3 construct: Nuf2 subunit of the budding yeast Ndc80 complex; Stood in the structure as part of the Ndc80 complex; also called Nuf2^CH; Nuf2^CC; source: as subunit of m1
T3 sequence (P33895 whole entry, one chain of several): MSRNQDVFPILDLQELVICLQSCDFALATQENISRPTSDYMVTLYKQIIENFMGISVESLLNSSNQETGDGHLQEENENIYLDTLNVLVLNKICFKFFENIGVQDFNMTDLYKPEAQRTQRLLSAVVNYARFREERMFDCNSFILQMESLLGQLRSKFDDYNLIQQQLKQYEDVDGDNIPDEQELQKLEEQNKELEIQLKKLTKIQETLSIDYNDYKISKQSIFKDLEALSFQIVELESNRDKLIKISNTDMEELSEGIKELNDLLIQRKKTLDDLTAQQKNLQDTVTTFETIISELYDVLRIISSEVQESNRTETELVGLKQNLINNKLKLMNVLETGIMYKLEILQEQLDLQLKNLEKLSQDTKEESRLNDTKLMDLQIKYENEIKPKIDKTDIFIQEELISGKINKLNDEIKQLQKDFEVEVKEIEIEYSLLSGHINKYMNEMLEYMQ

T1 sequence (P40460 whole entry, one chain of several): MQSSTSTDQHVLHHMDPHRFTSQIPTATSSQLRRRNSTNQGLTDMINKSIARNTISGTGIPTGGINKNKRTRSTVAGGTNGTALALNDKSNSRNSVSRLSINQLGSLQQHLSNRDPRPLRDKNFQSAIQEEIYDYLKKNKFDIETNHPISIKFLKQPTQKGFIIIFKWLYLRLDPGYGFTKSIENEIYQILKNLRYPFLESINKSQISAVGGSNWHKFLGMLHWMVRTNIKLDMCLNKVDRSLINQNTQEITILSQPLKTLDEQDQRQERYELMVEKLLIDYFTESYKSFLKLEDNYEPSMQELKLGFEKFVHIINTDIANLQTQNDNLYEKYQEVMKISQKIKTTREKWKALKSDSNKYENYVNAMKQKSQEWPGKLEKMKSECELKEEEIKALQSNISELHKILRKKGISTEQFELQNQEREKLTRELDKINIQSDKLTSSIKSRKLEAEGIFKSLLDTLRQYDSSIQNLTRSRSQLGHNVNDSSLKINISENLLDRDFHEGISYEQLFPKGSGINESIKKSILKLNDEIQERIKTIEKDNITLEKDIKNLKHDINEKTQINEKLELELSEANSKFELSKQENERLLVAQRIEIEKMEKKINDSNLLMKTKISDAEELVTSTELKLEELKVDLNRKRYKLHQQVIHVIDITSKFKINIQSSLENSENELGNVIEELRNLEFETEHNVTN
T2 sequence (P40460 whole entry, chain 1 of 4): as the sequence (P40460 whole entry, one chain of several) above
T2 sequence (P33895 whole entry, chain 2 of 4): as the sequence (P33895 whole entry, one chain of several) above
T2 sequence (Q04477 whole entry, chain 3 of 4): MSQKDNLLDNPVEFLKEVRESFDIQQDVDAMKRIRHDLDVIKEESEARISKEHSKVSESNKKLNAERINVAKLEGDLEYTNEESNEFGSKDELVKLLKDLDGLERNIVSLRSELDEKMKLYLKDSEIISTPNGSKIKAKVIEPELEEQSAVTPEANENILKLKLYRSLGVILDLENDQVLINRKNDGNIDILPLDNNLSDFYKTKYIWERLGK
T2 sequence (P40014 whole entry, chain 4 of 4): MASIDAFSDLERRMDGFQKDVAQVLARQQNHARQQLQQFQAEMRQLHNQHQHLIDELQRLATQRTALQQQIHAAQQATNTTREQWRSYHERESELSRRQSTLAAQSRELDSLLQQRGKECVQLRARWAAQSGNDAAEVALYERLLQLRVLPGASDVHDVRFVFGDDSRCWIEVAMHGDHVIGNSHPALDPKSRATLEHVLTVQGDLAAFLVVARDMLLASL

Regarding B1, in assay [1], the binding result is “binds”. As to B2, the binding result in assay [1] is reported as “binds”.

Regarding B3, the binding result in assay [2] and in assay [3] was “binds” in each case. B4: the binding result in assay [1] was “binds”. Consider B5, for which the binding result in assay [4] was “binds”. Take B6: the binding result in assay [5] and in assay [2] was “binds” in each case.

(Values after article doi:10.1101/2023.07.20.549907, “Mechanism of outer kinetochore assembly on microtubules and its regulation by mitotic error correction” (bioRxiv, 2023).)
